Experimental data reported in paper PMC2925389.

Key:
[1] = target: T1, yPolη truncated (catalytic core) (Saccharomyces cerevisiae, UniProt Q04049 1-513); test: EMSA; koff 0.008 ± 0.001 s-1 (DNA trap); 23°C, buffer A (composition not in material; without BSA for fluorescence); EMSA 10 nM DNA, 10-450 nM protein, 20 min, 4.5% native gel, 40 mM Tris in running bu
T1 sequence: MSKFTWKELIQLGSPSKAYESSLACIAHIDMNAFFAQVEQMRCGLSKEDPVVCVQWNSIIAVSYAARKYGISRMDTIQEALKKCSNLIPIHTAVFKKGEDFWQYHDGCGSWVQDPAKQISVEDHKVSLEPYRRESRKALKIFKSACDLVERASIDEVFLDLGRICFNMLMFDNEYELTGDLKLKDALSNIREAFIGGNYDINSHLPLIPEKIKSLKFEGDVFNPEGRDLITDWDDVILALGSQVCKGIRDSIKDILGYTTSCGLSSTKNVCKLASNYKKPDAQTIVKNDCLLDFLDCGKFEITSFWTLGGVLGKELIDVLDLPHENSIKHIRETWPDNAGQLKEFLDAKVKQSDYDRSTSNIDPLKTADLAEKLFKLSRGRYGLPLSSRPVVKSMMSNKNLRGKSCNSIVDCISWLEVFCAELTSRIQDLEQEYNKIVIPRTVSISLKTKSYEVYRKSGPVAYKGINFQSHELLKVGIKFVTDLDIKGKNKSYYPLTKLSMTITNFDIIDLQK

yPolη full-length = target: T2, yPolη full-length (Saccharomyces cerevisiae, UniProt Q04049 1-632); test: EMSA; koff 0.0041 ± 0.0008 s-1 (DNA trap); 23°C, buffer A (composition not in material; without BSA for fluorescence); EMSA 10 nM DNA, 10-450 nM protein, 20 min, 4.5% native gel, 40 mM Tris in running bu
T2 sequence: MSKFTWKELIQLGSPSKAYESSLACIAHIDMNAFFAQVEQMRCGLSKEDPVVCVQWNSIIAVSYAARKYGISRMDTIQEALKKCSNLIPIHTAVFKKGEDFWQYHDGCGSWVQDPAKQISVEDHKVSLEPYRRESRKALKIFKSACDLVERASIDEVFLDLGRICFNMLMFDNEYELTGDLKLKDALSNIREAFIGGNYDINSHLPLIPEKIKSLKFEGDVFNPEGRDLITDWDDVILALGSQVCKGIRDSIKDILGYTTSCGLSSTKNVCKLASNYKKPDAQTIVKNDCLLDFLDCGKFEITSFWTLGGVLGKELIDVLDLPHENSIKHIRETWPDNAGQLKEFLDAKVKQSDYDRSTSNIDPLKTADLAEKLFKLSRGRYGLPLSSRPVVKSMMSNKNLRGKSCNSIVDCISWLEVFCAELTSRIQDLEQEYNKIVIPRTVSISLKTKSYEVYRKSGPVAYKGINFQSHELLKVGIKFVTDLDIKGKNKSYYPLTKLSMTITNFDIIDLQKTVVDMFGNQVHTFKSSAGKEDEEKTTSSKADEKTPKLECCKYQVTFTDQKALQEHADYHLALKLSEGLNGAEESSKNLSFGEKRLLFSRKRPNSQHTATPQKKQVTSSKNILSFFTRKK

B1: D-1 21/41-mer (dsDNA)
DNA 1: CGCAGCCGTCCAACCAACTCA
DNA 2: GGACGGCATTGGATCGACGATGAGTTGGTTGGACGGCTGCG
Binder B1 has a Kd [1] of 34 ± 3 nM and a Kd (yPolη full-length) of 16 ± 1 nM.
